US20050244915
Residue numbers refer to the chain shown, from its start.

Columns and labels:
[1] = biological target: T1, GST HIF-1α 530-652, Q16665
T1 chain: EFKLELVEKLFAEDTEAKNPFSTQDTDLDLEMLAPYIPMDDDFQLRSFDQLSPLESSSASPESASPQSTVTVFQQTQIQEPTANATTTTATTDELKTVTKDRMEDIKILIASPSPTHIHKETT

[2] = biological target: GST HIF-1α 577-826, Q16665
[3] = biological target: T2, GST HIF-1α 775-826 N803A
T2 chain: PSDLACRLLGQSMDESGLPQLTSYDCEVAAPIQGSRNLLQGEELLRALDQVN

[4] = biological target: GST HIF-1α 775-826 N803D, Q16665
[5] = biological target: GST HIF-1α 775-826 N803E, Q16665
[6] = biological target: GST HIF-1α 775-826 N803Q, Q16665
[7] = biological target: GST HIF-1α 775-826 [GST: P08515]
[8] = biological target: T3, HIF-1α 775-826, Q16665
T3 chain: T2 chain with A29N

[9] = biological target: T4, His6-HIF-1α 344-503, Q16665
T4 chain: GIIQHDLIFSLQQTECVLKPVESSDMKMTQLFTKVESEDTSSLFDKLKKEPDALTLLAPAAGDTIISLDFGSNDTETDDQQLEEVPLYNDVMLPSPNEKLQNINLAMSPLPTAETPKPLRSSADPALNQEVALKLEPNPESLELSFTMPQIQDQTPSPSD

[10] = biological target: T5, His6-HIF-1α 530-698, Q16665
T5 chain: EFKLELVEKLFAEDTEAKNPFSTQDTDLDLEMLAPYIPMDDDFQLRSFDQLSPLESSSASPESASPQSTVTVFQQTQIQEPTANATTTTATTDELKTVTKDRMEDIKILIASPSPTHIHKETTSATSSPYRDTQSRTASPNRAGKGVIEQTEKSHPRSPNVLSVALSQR

B1: Factor Inhibiting HIF (FIH), recombinant (protein)
chain: MAATAAEAVASGSGEPREEAGALGPAWDESQLRSYSFPTRPIPRLSQSDPRAEELIENEEPVVLTDTNLVYPALKWDLEYLQENIGNGDFSVYSASTHKFLYYDEKKMANFQNFKPRSNREEMKFHEFVEKLQDIQQRGGEERLYLQQTLNDTVGRKIVMDFLGFNWNWINKQQGKRGWGQLTSNLLLIGMEGNVTPAHYDEQQNFFAQIKGYKRCILFPPDQFECLYPYPVHHPCDRQSQVDFDNPDYERFPNFQNVVGYETVVGPGDVLYIPMYWWHHIESLLNGGITITVNFWYKGAPTPKRIEYPLKAHQKVAIMRNIEKMLGEALGNPQEVGPLLNTMIKGRYN
**Q.** Which results are given for B1?
**A.** % activity relative to 775-826 peptide [1]: 1.8%; CO2 released [1]: 0.05 nmol; % activity relative to 775-826 peptide [2]: 67%; CO2 released [2]: 0.81 nmol; % activity relative to 775-826 peptide [3]: < 0.01%; CO2 released [3]: < 0.001 nmol; % activity relative to 775-826 peptide [4]: 7%; CO2 released [4]: 0.22 nmol; % activity relative to 775-826 peptide [5]: < 0.01%; CO2 released [5]: < 0.001 nmol; % activity relative to 775-826 peptide [6]: < 0.01%; CO2 released [6]: < 0.001 nmol; % activity relative to 775-826 peptide [7]: 96%; CO2 released [7]: 2.7 nmol; % activity relative to 775-826 peptide [8]: 100%; CO2 released [8]: 2.8 nmol; Km(peptide), 2-OG turnover assay [8]: Km(peptide)=10 µM; Vmax, 2-OG turnover assay [8]: Vmax=0.3 µmol/min/mg; mass increase of the substrate after reaction (mass spectrometry) [8]: an increase in mass of 16Da was observed after HPLC isolation of product; % activity relative to 775-826 peptide [9]: < 0.01%; CO2 released [9]: < 0.001 nmol; % activity relative to 775-826 peptide [10]: < 0.01%; CO2 released [10]: < 0.001 nmol
